What was measured:
[1] = molecular target: T1, HLA-DP2 (human, UniProt P20036 29-222; P04440 30-225); assay: competition
T1 chain 1: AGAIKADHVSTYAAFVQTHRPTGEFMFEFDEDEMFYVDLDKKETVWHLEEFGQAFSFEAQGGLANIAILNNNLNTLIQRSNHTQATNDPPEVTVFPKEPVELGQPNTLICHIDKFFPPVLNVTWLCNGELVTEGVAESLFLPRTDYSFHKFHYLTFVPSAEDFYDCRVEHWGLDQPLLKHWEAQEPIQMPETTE
T1 chain 2: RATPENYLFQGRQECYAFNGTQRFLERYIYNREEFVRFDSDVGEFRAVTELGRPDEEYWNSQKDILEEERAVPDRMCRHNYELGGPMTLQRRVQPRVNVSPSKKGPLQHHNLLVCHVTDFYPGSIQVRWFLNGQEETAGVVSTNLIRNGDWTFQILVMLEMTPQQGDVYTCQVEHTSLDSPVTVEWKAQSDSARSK

[2] = molecular target: T2, HLA-DP4 (human, UniProt P20036 29-222; P04440 30-225); assay: competition
T2 chain 1: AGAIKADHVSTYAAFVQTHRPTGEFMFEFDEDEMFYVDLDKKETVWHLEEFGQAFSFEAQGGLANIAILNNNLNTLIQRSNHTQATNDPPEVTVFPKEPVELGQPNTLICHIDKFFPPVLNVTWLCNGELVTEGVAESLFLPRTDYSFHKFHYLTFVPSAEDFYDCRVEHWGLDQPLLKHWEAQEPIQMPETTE
T2 chain 2: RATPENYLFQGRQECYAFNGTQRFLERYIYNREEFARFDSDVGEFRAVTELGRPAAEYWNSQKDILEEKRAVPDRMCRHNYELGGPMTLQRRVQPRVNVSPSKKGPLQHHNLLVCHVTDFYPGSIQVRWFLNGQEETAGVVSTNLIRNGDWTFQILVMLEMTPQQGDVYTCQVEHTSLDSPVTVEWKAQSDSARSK

- IC50 [1]: 8 µM
- IC50 [2]: 23.8 µM
B1: WT1328-348 (peptide)
peptide: PGCNKRYFKLSHLQMHSRKHT

— patent publication US20260042827A1 (published 2026)
